# Measured values taken from IntAct's records for PubMed 29892012.
# B1: Coiled-coil alpha-helical rod protein 1 (Homo sapiens), Q8TD31 (parent)
# chain: MFPPSGSTGLIPPSHFQARPLSTLPRMAPTWLSDIPLVQPPGHQDVSERRLDTQRPQVTMWERDVSSDRQEPGRRGRSWGLEGSQALSQQAEVIVRQLQELRRLEEEVRLLRETSLQQKMRLEAQAMELEALARAEKAGRAEAEGLRAALAGAEVVRKNLEEGSQRELEEVQRLHQEQLSSLTQAHEEALSSLTSKAEGLEKSLSSLETRRAGEAKELAEAQREAELLRKQLSKTQEDLEAQVTLVENLRKYVGEQVPSEVHSQTWELERQKLLETMQHLQEDRDSLHATAELLQVRVQSLTHILALQEEELTRKVQPSDSLEPEFTRKCQSLLNRWREKVFALMVQLKAQELEHSDSVKQLKGQVASLQEKVTSQSQEQAILQRSLQDKAAEVEVERMGAKGLQLELSRAQEARRRWQQQTASAEEQLRLVVNAVSSSQIWLETTMAKVEGAAAQLPSLNNRLSYAVRKVHTIRGLIARKLALAQLRQESCPLPPPVTDVSLELQQLREERNRLDAELQLSARLIQQEVGRAREQGEAERQQLSKVAQQLEQELQQTQESLASLGLQLEVARQGQQESTEEAASLRQELTQQQELYGQALQEKVAEVETRLREQLSDTERRLNEARREHAKAVVSLRQIQRRAAQEKERSQELRRLQEEARKEEGQRLARRLQELERDKNLMLATLQQEGLLSRYKQQRLLTVLPSLLDKKKSVVSSPRPPECSASAPVAAAVPTRESIKGSLSVLLDDLQDLSEAISKEEAVCQGDNLDRCSSSNPQMSS
# partner: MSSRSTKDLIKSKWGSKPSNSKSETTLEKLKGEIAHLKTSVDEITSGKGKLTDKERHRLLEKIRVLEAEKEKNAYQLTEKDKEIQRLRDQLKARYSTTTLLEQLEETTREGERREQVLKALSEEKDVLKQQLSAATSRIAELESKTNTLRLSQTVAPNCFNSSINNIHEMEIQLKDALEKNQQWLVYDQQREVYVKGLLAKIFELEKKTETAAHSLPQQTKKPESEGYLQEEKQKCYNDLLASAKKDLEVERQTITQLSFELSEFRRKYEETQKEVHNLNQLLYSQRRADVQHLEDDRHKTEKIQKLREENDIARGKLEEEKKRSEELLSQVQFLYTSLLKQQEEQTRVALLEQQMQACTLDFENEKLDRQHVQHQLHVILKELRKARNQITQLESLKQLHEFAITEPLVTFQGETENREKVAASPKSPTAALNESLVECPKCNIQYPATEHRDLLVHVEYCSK
# B2: Coiled-coil alpha-helical rod protein 1 (Homo sapiens), Q8TD31 (parent)
# chain: B1 chain
# partner: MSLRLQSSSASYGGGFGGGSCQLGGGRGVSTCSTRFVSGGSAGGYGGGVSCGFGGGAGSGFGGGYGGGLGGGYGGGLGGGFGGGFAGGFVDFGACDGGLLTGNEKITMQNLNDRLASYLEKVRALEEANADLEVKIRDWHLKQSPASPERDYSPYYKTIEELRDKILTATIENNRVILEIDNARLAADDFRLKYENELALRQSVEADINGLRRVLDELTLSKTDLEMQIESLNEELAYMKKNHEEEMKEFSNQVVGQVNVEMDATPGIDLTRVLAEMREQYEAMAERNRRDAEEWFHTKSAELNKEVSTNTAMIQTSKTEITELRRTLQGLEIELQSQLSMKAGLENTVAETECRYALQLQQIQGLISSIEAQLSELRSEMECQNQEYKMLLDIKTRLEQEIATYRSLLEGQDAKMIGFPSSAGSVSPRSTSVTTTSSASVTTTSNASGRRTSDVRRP
# B3: Coiled-coil alpha-helical rod protein 1 (Homo sapiens), Q8TD31 (parent)
# chain: B1 chain
# partner: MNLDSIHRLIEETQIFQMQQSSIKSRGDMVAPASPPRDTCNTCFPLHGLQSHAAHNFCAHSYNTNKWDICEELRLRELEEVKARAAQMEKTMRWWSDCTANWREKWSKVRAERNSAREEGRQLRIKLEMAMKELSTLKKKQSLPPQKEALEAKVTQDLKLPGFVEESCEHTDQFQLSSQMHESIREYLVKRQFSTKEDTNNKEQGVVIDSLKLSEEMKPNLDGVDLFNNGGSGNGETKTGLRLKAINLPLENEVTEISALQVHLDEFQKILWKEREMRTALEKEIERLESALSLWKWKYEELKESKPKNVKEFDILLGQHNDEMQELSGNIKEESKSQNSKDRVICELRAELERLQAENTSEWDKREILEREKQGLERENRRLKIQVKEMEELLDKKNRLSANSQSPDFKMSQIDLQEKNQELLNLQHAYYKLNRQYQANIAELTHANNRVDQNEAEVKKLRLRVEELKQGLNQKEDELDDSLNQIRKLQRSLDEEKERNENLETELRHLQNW
# B4: Coiled-coil alpha-helical rod protein 1 (Homo sapiens), Q8TD31 (parent)
# chain: B1 chain
# partner: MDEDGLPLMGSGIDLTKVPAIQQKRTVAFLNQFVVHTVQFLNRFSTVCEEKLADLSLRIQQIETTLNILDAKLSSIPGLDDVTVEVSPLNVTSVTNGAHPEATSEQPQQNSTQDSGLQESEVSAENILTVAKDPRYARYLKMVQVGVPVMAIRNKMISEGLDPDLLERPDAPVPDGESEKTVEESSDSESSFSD
# Variants of: B1
# Conditions: with cep55_human CEP55, Q53EZ4
row,Variant,effect of a mutation on the interaction
1,W337R,disrupting interaction strength

# Variants of: B2
# Conditions: with KRT13, P13646
row,Variant,effect of a mutation on the interaction
1,W337R,disrupting interaction strength

# Variants of: B3
# Conditions: with CCDC102B
row,Variant,effect of a mutation on the interaction
1,W337R,disrupting interaction strength

# Variants of: B4
# Conditions: with wasc3_human WASHC3, Q9Y3C0
row,Variant,effect of a mutation on the interaction
1,W337R,disrupting interaction strength
